Test results reported in paper PMC7465787.

Legend:
Cysteine-SpyCatcher [1] = assay: pull-down; Cys-SpyCatcher on magnetic beads (50 µl, 20 mg/ml) mixed with 500 µl crude leaf filtrate of plants expressing Mito-SpyTag; 30 min at 4 °C, mitochondria isolation buffer (30 mM MOPS pH 7.5, 0.3 M mannitol, 1 mM EDTA), three washes; mitochondria stained with MitoTracker Orange, read by CLSM and counted; wild type filtrate as control
Cysteine-SpyCatcher [2] = molecular target: Cysteine-SpyCatcher
Cysteine-SpyCatcher [3] = assay: pull-down; Cys-SpyCatcher on magnetic beads (50 µl, 20 mg/ml) mixed with 200 µl crude leaf filtrate of plants expressing Plastid-SpyTag; 30 min at 4 °C, chloroplast isolation buffer (10 mM HEPES-KOH pH 7.0, 0.33 M sorbitol), three washes; chloroplasts on beads read by CLSM and counted; wild type filtrate as control

Mito-SpyTag (NtHxk1-SpyTag) (from UniProt Q9SEK2 1-44)
percent of beads that carry a bound mitochondrion (Cysteine-SpyCatcher [1]): 31.1%
enrichment of mitochondrial fumarase activity in the bead fraction compared to the crude input fraction (Cysteine-SpyCatcher [2]): 5.4 fold

Plastid-SpyTag (OEP7-SpyTag)
percent of beads that carry a chloroplast (Cysteine-SpyCatcher [3]): 22.8%
